Numbered stars: 1 amine (or outer) side, 2 acyl side, 3 side chain; on linkers, the order of the positions; unused ones are H or OH. Bridge positions count the residues as written; N and C are the ends. Side chains are listed from the residue outwards. Ends that are not written are not given here. * marks the point of attachment. C20 diacid = O=C(O)CCCCCCCCCCCCCCCCCCC(=O)*; γGlu = O=C(O)[C@H](CCC(=O)[*:2])N[*:1]
T1: rat calcitonin receptor (rat, UniProt P32214 25-516)
T1 construct: whole, on cells; also called rCTR; rat calcitonin (a) receptor
T1 sequence (looked up): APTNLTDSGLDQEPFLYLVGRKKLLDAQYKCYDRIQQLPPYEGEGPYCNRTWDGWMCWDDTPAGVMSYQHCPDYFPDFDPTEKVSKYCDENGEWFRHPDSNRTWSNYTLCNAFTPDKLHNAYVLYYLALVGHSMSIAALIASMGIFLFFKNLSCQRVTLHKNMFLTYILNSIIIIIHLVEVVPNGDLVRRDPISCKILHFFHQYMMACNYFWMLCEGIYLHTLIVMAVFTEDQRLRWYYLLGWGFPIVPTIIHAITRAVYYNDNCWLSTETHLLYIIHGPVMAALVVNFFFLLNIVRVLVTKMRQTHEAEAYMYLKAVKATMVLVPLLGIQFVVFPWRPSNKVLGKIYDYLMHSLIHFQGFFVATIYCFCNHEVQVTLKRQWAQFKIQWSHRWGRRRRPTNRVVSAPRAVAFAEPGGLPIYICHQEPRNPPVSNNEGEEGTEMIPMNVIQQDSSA

T2: human calcitonin receptor (human, UniProt P30988 25-474)
T2 construct: whole, on cells; also called hCTR; hCT
T2 sequence (looked up): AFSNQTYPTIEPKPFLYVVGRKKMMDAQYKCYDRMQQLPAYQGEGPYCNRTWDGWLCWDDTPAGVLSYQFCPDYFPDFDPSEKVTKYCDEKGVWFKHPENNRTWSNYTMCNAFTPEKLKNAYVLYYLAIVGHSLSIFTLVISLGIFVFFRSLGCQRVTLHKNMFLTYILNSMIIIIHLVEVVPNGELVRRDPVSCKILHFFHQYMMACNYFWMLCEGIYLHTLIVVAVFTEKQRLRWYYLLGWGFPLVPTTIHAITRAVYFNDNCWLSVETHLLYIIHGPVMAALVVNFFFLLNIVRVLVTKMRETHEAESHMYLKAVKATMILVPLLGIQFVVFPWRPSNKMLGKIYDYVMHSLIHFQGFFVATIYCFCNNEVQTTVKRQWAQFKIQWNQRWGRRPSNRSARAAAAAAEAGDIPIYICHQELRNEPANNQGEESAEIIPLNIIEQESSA

T3: rat amylin receptor (rat calcitonin receptor + rat RAMP 3) (rat, UniProt P32214 25-516; Q9JJ73 23-147)
T3 construct: whole, on cells; also called rAmylin-R; rat amylin 3(a) receptor
T3 sequence (looked up) 1: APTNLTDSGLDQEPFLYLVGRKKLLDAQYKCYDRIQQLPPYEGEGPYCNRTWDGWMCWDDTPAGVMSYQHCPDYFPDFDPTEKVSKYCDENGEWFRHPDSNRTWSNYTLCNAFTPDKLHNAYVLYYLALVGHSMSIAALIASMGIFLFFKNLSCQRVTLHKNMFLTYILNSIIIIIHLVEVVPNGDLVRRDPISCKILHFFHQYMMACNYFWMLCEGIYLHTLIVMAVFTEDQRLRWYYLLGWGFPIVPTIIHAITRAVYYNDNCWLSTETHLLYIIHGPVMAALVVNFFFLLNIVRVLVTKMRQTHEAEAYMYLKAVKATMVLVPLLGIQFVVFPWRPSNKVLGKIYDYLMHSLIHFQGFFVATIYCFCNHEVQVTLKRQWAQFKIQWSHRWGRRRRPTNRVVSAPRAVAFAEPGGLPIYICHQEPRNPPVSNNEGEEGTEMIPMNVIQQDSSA
T3 sequence (looked up) 2: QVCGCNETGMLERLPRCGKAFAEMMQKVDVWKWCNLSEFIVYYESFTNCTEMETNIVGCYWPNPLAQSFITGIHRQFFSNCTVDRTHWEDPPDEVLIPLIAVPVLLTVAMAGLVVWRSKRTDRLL


Tests used:
rat calcitonin receptor [1] = target: T1, rat calcitonin receptor; test: ratio of binding IC50s: rat calcitonin receptor over rat amylin receptor (reference)
[2] = target: T2, human calcitonin receptor; test: ratio of binding IC50s: human calcitonin receptor over human amylin receptor (reference)
Procedure, shortened: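 Membranes (35 ng/μL final) + SPA beads, 50 mM Hepes pH 7.4 buffer with 1 mM CaCl2, 5 mM MgCl₂, 0.1% OA, 0.02% Tween20; 120 min, 25° C, shaking; centrifuged, counted; IC₅₀ by one-site binding competition.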

rat calcitonin receptor [3] = target: T1, rat calcitonin receptor; test: SPA competition with 125I-calcitonin, membranes of BHK cells with rat calcitonin receptor (Assay VIII)
[4] = target: T3, rat amylin receptor (rat calcitonin …); test: SPA competition with 125I-rat amylin, membranes of BHK cells with rat calcitonin receptor + rat RAMP3 (Assay VI)

| Ratio rCT/rAmylin binding (rat calcitonin receptor [1]) | Ratio hCT/hAmylin binding [2] | IC50 (rat calcitonin receptor [3]) [nM] | IC50 [4] [nM] | Binder |
| --- | --- | --- | --- | --- |
| 45.6 | 35.6 | 94.5 | 2.07 | K([γGlu-γGlu-C20 diacid])CNTATCATQRLAEFLRHSSPNFGAIPSSTNVGHNTY-NH2 (disulfide 2-7; N-terminus assumed; SMILES CC[C@H](C)[C@H](NC(=O)[C@H](C)NC(=O)CNC(=O)[C@H](Cc1ccccc1)NC(=O)[C@H](CC(N)=O)NC(=O)[C@@H]1CCCN1C(=O)[C@H](CO)NC(=O)[C@H](CO)NC(=O)[C@H](Cc1c[nH]cn1)NC(=O)[C@H](CCCNC(=N)N)NC(=O)[C@H](CC(C)C)NC(=O)[C@H](Cc1ccccc1)NC(=O)[C@H](CCC(=O)O)NC(=O)[C@H](C)NC(=O)[C@H](CC(C)C)NC(=O)[C@H](CCCNC(=N)N)NC(=O)[C@H](CCC(N)=O)NC(=O)[C@@H](NC(=O)[C@H](C)NC(=O)[C@@H]1CSSC[C@H](NC(=O)[C@@H](N)CCCCNC(=O)CC[C@H](NC(=O)CC[C@H](NC(=O)CCCCCCCCCCCCCCCCCCC(=O)O)C(=O)O)C(=O)O)C(=O)N[C@@H](CC(N)=O)C(=O)N[C@@H]([C@@H](C)O)C(=O)N[C@@H](C)C(=O)N[C@@H]([C@@H](C)O)C(=O)N1)[C@@H](C)O)C(=O)N1CCC[C@H]1C(=O)N[C@@H](CO)C(=O)N[C@@H](CO)C(=O)N[C@H](C(=O)N[C@@H](CC(N)=O)C(=O)N[C@H](C(=O)NCC(=O)N[C@@H](Cc1c[nH]cn1)C(=O)N[C@@H](CC(N)=O)C(=O)N[C@H](C(=O)N[C@@H](Cc1ccc(O)cc1)C(N)=O)[C@@H](C)O)C(C)C)[C@@H](C)O, synthetic analogue of human amylin; also called compound 87) |
| 28.5 | 4.3 | 18.8 | 0.659 | KCNTATCATQRLADFLRHSSK([γGlu-γGlu-C20 diacid])NFGAIPSSTNVGSDTY-NH2 (disulfide 2-7; N-terminus assumed; SMILES CC[C@H](C)[C@H](NC(=O)[C@H](C)NC(=O)CNC(=O)[C@H](Cc1ccccc1)NC(=O)[C@H](CC(N)=O)NC(=O)[C@H](CCCCNC(=O)CC[C@H](NC(=O)CC[C@H](NC(=O)CCCCCCCCCCCCCCCCCCC(=O)O)C(=O)O)C(=O)O)NC(=O)[C@H](CO)NC(=O)[C@H](CO)NC(=O)[C@H](Cc1c[nH]cn1)NC(=O)[C@H](CCCNC(=N)N)NC(=O)[C@H](CC(C)C)NC(=O)[C@H](Cc1ccccc1)NC(=O)[C@H](CC(=O)O)NC(=O)[C@H](C)NC(=O)[C@H](CC(C)C)NC(=O)[C@H](CCCNC(=N)N)NC(=O)[C@H](CCC(N)=O)NC(=O)[C@@H](NC(=O)[C@H](C)NC(=O)[C@@H]1CSSC[C@H](NC(=O)[C@@H](N)CCCCN)C(=O)N[C@@H](CC(N)=O)C(=O)N[C@@H]([C@@H](C)O)C(=O)N[C@@H](C)C(=O)N[C@@H]([C@@H](C)O)C(=O)N1)[C@@H](C)O)C(=O)N1CCC[C@H]1C(=O)N[C@@H](CO)C(=O)N[C@@H](CO)C(=O)N[C@H](C(=O)N[C@@H](CC(N)=O)C(=O)N[C@H](C(=O)NCC(=O)N[C@@H](CO)C(=O)N[C@@H](CC(=O)O)C(=O)N[C@H](C(=O)N[C@@H](Cc1ccc(O)cc1)C(N)=O)[C@@H](C)O)C(C)C)[C@@H](C)O, synthetic analogue of human amylin; also called compound 59) |
